According to paper PMC11451537, “P2X7 receptors exhibit at least three modes of allosteric antagonism” (Science Advances, 2024):

Target: the molecule itself
Test: cryo-EM structure; purified rP2X7 in 20 mM Hepes pH 7.0, 100 mM NaCl, 0.5 mM C12M (DDM), incubated 1 hour with small-molecule antagonist (about 200 to 400 uM); six antagonist-bound structures at 2.2 to 2.7 A

B1: full-length, wild-type rat P2X7 receptor (receptor, UniProt Q64663 1-595, looked up)
chain: MPACCSWNDVFQYETNKVTRIQSVNYGTIKWILHMTVFSYVSFALMSDKLYQRKEPLISSVHTKVKGVAEVTENVTEGGVTKLVHGIFDTADYTLPLQGNSFFVMTNYLKSEGQEQKLCPEYPSRGKQCHSDQGCIKGWMDPQSKGIQTGRCIPYDQKRKTCEIFAWCPAEEGKEAPRPALLRSAENFTVLIKNNIDFPGHNYTTRNILPGMNISCTFHKTWNPQCPIFRLGDIFQEIGENFTEVAVQGGIMGIEIYWDCNLDSWSHRCQPKYSFRRLDDKYTNESLFPGYNFRYAKYYKENGMEKRTLIKAFGVRFDILVFGTGGKFDIIQLVVYIGSTLSYFGLATVCIDLIINTYASTCCRSRVYPSCKCCEPCAVNEYYYRKKCEPIVEPKPTLKYVSFVDEPHIWMVDQQLLGKSLQDVKGQEVPRPQTDFLELSRLSLSLHHSPPIPGQPEEMQLLQIEAVPRSRDSPDWCQCGNCLPSQLPENRRALEELCCRRKPGQCITTSELFSKIVLSREALQLLLLYQEPLLALEGEAINSKLRHCAYRSYATWRFVSQDMADFAILPSCCRWKIRKEFPKTQGQYSGFKYPY
notes: P2X7 receptor (P2X purinoceptor 7), rat; also called rP2X7; source: HEK293 GNTI- cells, BacMam baculovirus transduction; purified (DDM/CHS solubilisation, TALON resin, HRV 3C digestion, Superdex 200 SEC)
In the case of B1, the “stoichiometry N” value is reported as 3.
